Source: patent US11007356B2, “Ingestible device for delivery of therapeutic agent to the gastrointestinal tract” (Progenity, Inc., priority 2018, dated 2021)

B1: emicizumab (antibody, chains of the INN, looked up, V domains shown)
VH: QVQLVQSGSELKKPGASVKVSCKASGYTFTDNNMDWVRQAPGQGLEWMGDINTRSGGSIYNEEFQDRVIMTVDKSTDTAYMELSSLRSEDTATYHCARRKSYGYYLDEWGEGTLVTVSS
VL: DIQMTQSPSSLSASVGDRVTITCKASRNIERQLAWYQQKPGQAPELLIYQASRKESGVPDRFSGSRYGTDFTLTISSLQPEDIATYYCQQYSDPPLTFGGGTKVEIK
VH2: QVQLVESGGGLVQPGGSLRLSCAASGFTFSYYDIQWVRQAPGKGLEWVSSISPSGQSTYYRREVKGRFTISRDNSKNTLYLQMNSLRAEDTAVYYCARRTGREYGGGWYFDYWGQGTLVTVSS
VL2: B1 VL
B2: pegfilgrastim (protein, UniProt P09919 31-207, looked up)
Granulocyte …: TPLGPASSLPQSFLLKCLEQVRKIQGDGAALQEKLVSECATYKLCHPEELVLLGHSLGIPWAPLSSCPSQALQLAGCLSQLHSGLFLYQGLLQALEGISPELGPTLDTLQLDVADFATTIWQQMEELGMAPALQPTQGAMPAFASAFQRRAGGVLVASHLQSFLEVSYRVLRHLAQP
modifications: N-terminal Met; PEG
B3: evolocumab (antibody, chains of the INN, looked up, V domains shown)
VH: EVQLVQSGAEVKKPGASVKVSCKASGYTLTSYGISWVRQAPGQGLEWMGWVSFYNGNTNYAQKLQGRGTMTTDPSTSTAYMELRSLRSDDTAVYYCARGYGMDVWGQGTTVTVSS
VL: ESALTQPASVSGSPGQSITISCTGTSSDVGGYNSVSWYQQHPGKAPKLMIYEVSNRPSGVSNRFSGSKSGNTASLTISGLQAEDEADYYCNSYTSTSMVFGGGTKLTVL
B4: concizumab (antibody, chains of the INN, looked up, V domains shown)
VH: EVQLVESGGGLVKPGGSLRLSCAASGFTFSNYAMSWVRQTPEKRLEWVATISRSGSYSYFPDSVQGRFTISRDNAKNSLYLQMNSLRAEDTAVYYCARLGGYDEGDAMDSWGQGTTVTVSS
VL: DIVMTQTPLSLSVTPGQPASISCKSSQSLLESDGKTYLNWYLQKPGQSPQLLIYLVSILDSGVPDRFSGSGSGTDFTLKISRVEAEDVGVYYCLQATHFPQTFGGGTKVEIK

Experiments:
[1] = Dosing regimen model: required bioavailability for ingestible device (Tables 16, 17); details: for Eff Dose: approved dose x bioavailability of the approved route (Table 16)
[2] = in vivo, sc; cited from earlier work

Molecule | Eff Dose [1] [mg] | Bio Avail (Approved Dosing Info) [2] [%] | Eff. Dose ([1]; baseline dose x bioavailability, SC (Table 17), assumed weight 70 kg) [mg] | Bioavail. (Baseline dose) [2] [%]
B1 | 89.3 | 85 |  | 
B2 | 4.2 | 70 |  | 
B3 | 114.8 | 82 |  | 
B4 |  |  | 16.3 | 93.0
